Experimental data reported in patent publication US20090137002A1 (published 2009).

T1: myc-tagged human EphB4 on transfected CHO cells (human, UniProt P54760 16-987)
T1 construct: whole, on cells; also called CHO-EphB4; CHO-hEphB4; not shown: myc tag
T1 sequence (looked up): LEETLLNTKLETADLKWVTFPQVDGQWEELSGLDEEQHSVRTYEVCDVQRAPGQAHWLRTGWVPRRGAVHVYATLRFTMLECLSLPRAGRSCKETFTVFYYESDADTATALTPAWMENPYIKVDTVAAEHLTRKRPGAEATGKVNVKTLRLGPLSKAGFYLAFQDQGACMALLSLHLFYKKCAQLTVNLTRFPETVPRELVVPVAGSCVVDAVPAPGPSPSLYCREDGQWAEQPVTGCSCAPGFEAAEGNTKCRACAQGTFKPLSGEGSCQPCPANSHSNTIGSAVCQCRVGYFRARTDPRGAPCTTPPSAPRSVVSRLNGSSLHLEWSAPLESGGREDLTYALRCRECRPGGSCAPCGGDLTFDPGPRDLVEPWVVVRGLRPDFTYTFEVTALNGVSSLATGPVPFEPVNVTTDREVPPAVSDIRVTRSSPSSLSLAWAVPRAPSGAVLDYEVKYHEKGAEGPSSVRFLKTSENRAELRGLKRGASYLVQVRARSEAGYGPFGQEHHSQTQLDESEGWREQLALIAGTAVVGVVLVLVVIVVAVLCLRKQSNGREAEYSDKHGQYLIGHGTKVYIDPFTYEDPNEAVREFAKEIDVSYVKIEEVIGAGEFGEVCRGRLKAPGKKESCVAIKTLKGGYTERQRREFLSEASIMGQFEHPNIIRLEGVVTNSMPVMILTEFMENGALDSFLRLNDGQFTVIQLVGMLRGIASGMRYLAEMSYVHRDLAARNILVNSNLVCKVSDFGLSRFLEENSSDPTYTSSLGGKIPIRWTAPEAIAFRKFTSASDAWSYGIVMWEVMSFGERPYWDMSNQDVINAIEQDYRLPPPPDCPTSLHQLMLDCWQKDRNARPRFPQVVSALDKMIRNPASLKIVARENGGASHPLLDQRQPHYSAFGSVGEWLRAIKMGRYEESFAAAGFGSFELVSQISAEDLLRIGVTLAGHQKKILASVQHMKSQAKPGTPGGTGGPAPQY

T2: recombinant mouse EphB3-Fc fusion protein (mouse, UniProt P54754 30-537, limits assumed)
T2 construct: also called mEphB3; not shown: Fc part, not described
T2 sequence (looked up): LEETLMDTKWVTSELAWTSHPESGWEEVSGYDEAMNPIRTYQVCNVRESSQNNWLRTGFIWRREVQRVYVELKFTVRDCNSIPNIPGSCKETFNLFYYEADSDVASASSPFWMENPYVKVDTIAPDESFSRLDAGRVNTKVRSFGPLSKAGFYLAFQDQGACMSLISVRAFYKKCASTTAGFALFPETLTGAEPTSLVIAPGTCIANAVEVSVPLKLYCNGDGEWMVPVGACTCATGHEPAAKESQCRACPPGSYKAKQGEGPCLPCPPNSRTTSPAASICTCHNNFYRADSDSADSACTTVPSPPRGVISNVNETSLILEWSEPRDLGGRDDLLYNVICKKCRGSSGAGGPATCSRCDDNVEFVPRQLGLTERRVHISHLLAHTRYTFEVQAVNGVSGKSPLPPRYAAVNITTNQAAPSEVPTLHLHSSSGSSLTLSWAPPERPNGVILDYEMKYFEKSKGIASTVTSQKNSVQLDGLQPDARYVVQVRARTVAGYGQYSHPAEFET


How the values were obtained:
[1] = target: T1, myc-tagged human EphB4 on transfected …; assay: FACS titration of IgG4-Pro on CHO-EphB4 cells
Procedure: For the determination of EC50 values, the 12 final IgGs were analyzed on CHO-EphB4 cells in FACS. The EC50 values of the IgGs, determined in two independent experiments, are given in Table 11 and are compared to the EC50 values of the corresponding Fab. […] Again, as already seen for the Fab, the EC50 values of the MOR07310 pool were slightly better than those of the MOR03641 pool.

[2] = target: T1, myc-tagged human EphB4 on transfected …; assay: FACS competition on CHO-EphB4 cells, competitor murine ephrin-B2
Procedure: (§1) C50 values (i.e. IgG4-Pro inhibition of ligand binding) were determined in FACS. […] Receptor-bound ephrin-B2 was detected via biotinylated anti-mouse ephrin-B2 antibody (R&D Systems) and streptavidin-PE. The IC50 values of the IgGs, determined in two independent experiments, are given in Table 11 and are compared to the IC50 values of the corresponding Fab. […] Again, as already seen for the Fab, the IC50 values of the MOR07310 pool were slightly better than those of the MOR03641 pool.

[3] = target: T1, myc-tagged human EphB4 on transfected …; assay: FACS, IgG4-Pro inhibition of murine ephrin-B2 binding to CHO-EphB4 cells
Procedure: as §1

[4] = target: T2, recombinant mouse EphB3-Fc fusion …; assay: ELISA: mEphrinB2-Fc (25 ng/ml) on coated mEphB3-Fc, with or without 100 µg/mL anti-EphB4 Fab
Procedure: Specificity for EphB4 in ELISA: Wells of a 96-well maxisorp-plate were coated overnight with 100 μL recombinant human EphB4 (hEphB4)-, recombinant mouse EphB3 (mEphB3)- or recombinant mouse EphA4 (mEphA4)-Fc fusion protein at a final concentration of 2.5 μg/mL in PBS. Anti-EphB4 Fab fragments (purified, MH-tagged) were added (100 μL/well, 100 μg/mL final concentration in chemiblock) to respective wells and incubated for 1 h at RT. Then 100 μl mEphrinB2-Fc fusion protein either spiked with the respective anti-EphB4 Fab or with PBS was added (25 ng/ml mEphrinB2+/−100 μg/ml Fab diluted in chemiblock) and incubated for max. 20 min at RT. The amount of bound EphrinB2 was detected using biotinylated goat anti-EphrinB2 antibody (0.05 μg/ml final concentration diluted in chemiblock, 1 h at RT), AP-conjugated streptavidin and AttoPhos substrate. Fluorescence was measured (RFU) at 535 nm (430 nm excitation).

[5] = target: T1, myc-tagged human EphB4 on transfected …; assay: FACS, IgG4-Pro inhibition of murine ephrin-B2 binding to CHO-EphB4 cells; n = 1
Procedure: as §1

Binder | EC50 [1] [nM] | EC50 (read off the curve) [1] [nM] | IC50 (read off the curve) [2] [nM] | IC50 [3] [nM] | fold improvement of IC50 compared to the corresponding Fab [3] [fold] | binding result [4] | IC50 [5] [nM]
MOR07953 IgG4-Pro (antibody, V domains shown, Fab MOR07953 converted into human IgG4-Pro format) VH: QVELVESGGGLVQPGGSLRLSCAASGFTFNNAWMSWVRQAPGKGLEWVSAINAKGQFTSYADSVKGRFTISRDNSKNTLYLQMNSLRAEDTAVYYCARKGMSFYNNKYAKSMFDLWGQGTLVTVSS VL: DIELTQPPSVSVAPGQTARISCSGDNLGKKYVHWYQQKPGQAPVLVIYYDSKRPSGIPERFSGSNSGNTATLTISGTQAEDEADYYCQTWTLSHMGNVFGGGTKLTVLG | 0.17 | ~0.1 | ~0.3 | 0.23 | – | – | –
MOR07721 IgG4-Pro (antibody, V domains shown, Fab MOR07721 converted into human IgG4-Pro format) VH: QVQLVESGGGLVQPGGSLRLSCAASGFTFNNAWMSWVRQAPGKGLEWVSTIEAKMPNGATFYAAPVKGRFTISRDNSKNTLYLQMNSLRAEDTAVYYCARKGMSFYNNKYAKSMFDLWGQGTLVTVSS VL: DIELTQPPSVSVAPGQTARISCSGDNLGKKYVHWYQQKPGQAPVLVIYYDSKRPSGIPERFSGSNSGNTATLTISGTQAEDEADYYCSAWTTTMMHIVFGGGTKLTVLG | 0.12 | – | ~0.1 | 0.16 | 6 | – | –
mEphrinB2-Fc fusion protein (Fc fusion, mouse, UniProt P52800 27-227, looked up, not shown: Fc part, not described) ISRSIVLEPIYWNSSNSKFLPGQGLVLYPQIGDKLDIICPKVDSKTVGQYEYYKVYMVDKDQADRCTIKKENTPLLNCARPDQDVKFTIKFQEFSPNLWGLEFQKNKDYYIISTSNGSLEGLDNQEGGVCQTRAMKILMKVGQDASSAGSARNHGPTRRPELEAGTNGRSSTTSPFVKPNPGSSTDGNSAGHSGNNLLGSE | – | – | – | – | – | binds | –
MOR07728 IgG4-Pro (antibody, V domains shown, Fab MOR07728 converted into human IgG4-Pro format) VH: QVELVQSGAEVKKPGSSVKVSCKASGGTFSTYAISWVRQAPGQGLEWMGRIIPIFGTANYAQKFQGRVTITADESTSTAYMELSSLRSEDTAVYYCARSSYTILTTYYNYNAMDNWGQGTLVTVSS VL: DIQMTQSPSSLSASVGDRVTITCRASQNINNFLNWYQQKPGKAPKLLIYGSSILQSGVPSRFSGSGSGTDFTLTISSLQPEDFATYYCQQNDFYSPSTFGQGTKVEIKR | 1.58 | ~2 | ~3 | – | – | – | 3.26
MOR07956 IgG4-Pro (antibody, V domains shown, Fab MOR07956 converted into human IgG4-Pro format) VH: QVELVQSGAEVKKPGSSVKVSCKASGGTFSTYAISWVRQAPGQGLEWMGKIIPIFGDADYAQKFQGRVTITADESTSTAYMELSSLRSEDTAVYYCARSSYTILTTYYNYNAMDNWGQGTLVTVSS VL: DIQMTQSPSSLSASVGDRVTITCRASQNINNFLNWYQQKPGKAPKLLIYGSSILQSGVPSRFSGSGSGTDFTLTISSLQPEDFATYYCQQYDFYLSGTFGQGTKVEIKR | 0.34 | – | – | – | – | – | 0.43

Now from value to binder:

EC50 [1] [nM] | EC50 (read off the curve) [1] [nM] | IC50 (read off the curve) [2] [nM] | IC50 [3] [nM] | fold improvement of IC50 compared to the corresponding Fab [3] [fold] | binding result [4] | IC50 [5] [nM] | Binder
0.18 | – | ~0.1 | 0.1 | – | – | – | MOR07724 IgG4-Pro (antibody, V domains shown, Fab MOR07724 converted into human IgG4-Pro format) VH: QVQLVESGGGLVQPGGSLRLSCAASGFTFNNAWMSWVRQAPGKGLEWVSGISADGVHKFYADSVKGRFTISRDNSKNTLYLQMNSLRAEDTAVYYCARKGMSFYNNKYAKSMFDLWGQGTLVTVSS VL: DIELTQPPSVSVAPGQTARISCSGDNLGKKYVHWYQQKPGQAPVLVIYYDSKRPSGIPERFSGSNSGNTATLTISGTQAEDEADYYCSAWTTTMMHIVFGGGTKLTVLG
0.51 | – | – | 0.31 | – | – | – | MOR07955 IgG4-Pro (antibody, V domains shown, Fab MOR07955 converted into human IgG4-Pro format) VH: QVELVQSGAEVKKPGSSVKVSCKASGGTFSTYAISWVRQAPGQGLEWMGKIIPIFGDADYAQKFQGRVTITADESTSTAYMELSSLRSEDTAVYYCARSSYTILTTYYNYNAMDNWGQGTLVTVSS VL: DIQMTQSPSSLSASVGDRVTITCRASQNINNFLNWYQQKPGKAPKLLIYGSSILQSGVPSRFSGSGSGTDFTLTISSLQPEDFATYYCSQDHFYPPSGTFGQGTKVEIKR
0.36 | – | – | 0.79 | – | – | – | MOR07957 IgG4-Pro (antibody, V domains shown, Fab MOR07957 converted into human IgG4-Pro format) VH: QVELVQSGAEVKKPGSSVKVSCKASGGTFSTYAISWVRQAPGQGLEWMGQIIPIFGDADYAQKFQGRVTITADESTSTAYMELSSLRSEDTAVYYCARSSYTILTTYYNYNAMDNWGQGTLVTVSS VL: DIQMTQSPSSLSASVGDRVTITCRASQNINNFLNWYQQKPGKAPKLLIYGSSILQSGVPSRFSGSGSGTDFTLTISSLQPEDFATYYCQQNDFYSPSTFGQGTKVEIKR
